The term stoichiometry N denotes the number of molecules, sites or subunits per partner or assembly.

This passage reports stoichiometry N results from publication PMC8034431.

The target in test [1] is wild-type FLT3 ligand (FLWT). Description: SEC-MALS; ligand mixed with FLT3_(D1-D5) (20% molar excess of FL_(L27D)); Superdex 200 Increase, HBS (20 mM HEPES pH 7.4, 150 mM NaCl), 0.5 ml/min, 25 °C; glycoprotein conjugate analysis; N for FLWT counts FLT3 molecules for each dimeric FLWT.
In test [2] the target is human FLT3 domains 1-5 (FLT3_(D1-D5)) (human) (UniProt P36888). The test is described as above.

Take “human FLT3 domains 1-5 (FLT3_(D1-D5)) (from UniProt P36888 27-541) (domain or fragment)”: the stoichiometry N in test [1] stood at 2.

B1: FLT3 ligand Leu27Asp mutant (FL_(L27D)), as produced (ligand)
chain: TQDCSFQHSPISSDFAVKIRELSDYLDQDYPVTVASNLQDEELCGGLWRLVLAQRWMERLKTVAGSKMQGLLERVNTEIHFVTKCAFQPPPSCLRFVQTNISRLLQETSEQLVALKPWITRQNFSRCLELQCQP
In turn, B1 had a stoichiometry N in test [2] of 1.
